Twelve molecules from paper PMC10954455 can be followed below.

Sequences and labels used below:
B1: CSTB G4 in dsDNA (mixed)
DNA 1: CCTGAAGCAGACAGCTAGTGAATTCGGGGCGGGGCGCGGGGCGGGGTACTTGCGTATAACTGTTCCATAGT
DNA 2: ACTATGGAACAGTTATACGCAAGTATTTTTTTTTTTTTTTTTTTTTGAATTCACTAGCTGTCTGCTTCAGG
B2: MYOG in dsDNA (no G4 formed) (mixed)
DNA 1: CCTGAAGCAGACAGCTAGTGAATTCGGGTGGGCTGGGAGGTACTTGCGTATAACTGTTCCATAGT
DNA 2: ACTATGGAACAGTTATACGCAAGTATTTTTTTTTTTTTTTTTTTTTGAATTCACTAGCTGTCTGCTTCAGG
B3: non-G4 dsDNA (dsDNA)
DNA 1: CCTGAAGCAGACAGCTAGTGAATTCAAAAAAAAAAAAAAAAAAAAATACTTGCGTATAACTGTTCCATAGT
DNA 2: ACTATGGAACAGTTATACGCAAGTATTTTTTTTTTTTTTTTTTTTTGAATTCACTAGCTGTCTGCTTCAGG
B4: C9orf72 G4 in dsDNA (mixed)
DNA 1: CCTGAAGCAGACAGCTAGTGAATTCGGGGCCGGGGCCGGGGCCGGGGTACTTGCGTATAACTGTTCCATAGT
DNA 2: ACTATGGAACAGTTATACGCAAGTATTTTTTTTTTTTTTTTTTTTTGAATTCACTAGCTGTCTGCTTCAGG
B5: T1B1 G4 in dsDNA (mixed)
DNA 1: CCTGAAGCAGACAGCTAGTGAATTCGTGGTGGGTGGGTGGGTACTTGCGTATAACTGTTCCATAGT
DNA 2: ACTATGGAACAGTTATACGCAAGTATTTTTTTTTTTTTTTTTTTTTGAATTCACTAGCTGTCTGCTTCAGG
B6: B4-dx2 G4 in dsDNA (mixed)
DNA 1: CCTGAAGCAGACAGCTAGTGAATTCGGATCTGAGAATCAGATGTGGGTGGGTGGGTACTTGCGTATAACTGTTCCATAGT
DNA 2: ACTATGGAACAGTTATACGCAAGTATTTTTTTTTTTTTTTTTTTTTGAATTCACTAGCTGTCTGCTTCAGG
B7: MYC G4 in dsDNA (mixed)
DNA 1: CCTGAAGCAGACAGCTAGTGAATTCGGGTGGGGAGGGTGGGGTACTTGCGTATAACTGTTCCATAGT
DNA 2: ACTATGGAACAGTTATACGCAAGTATTTTTTTTTTTTTTTTTTTTTGAATTCACTAGCTGTCTGCTTCAGG
B8: T4B1 G4 in dsDNA (mixed)
DNA 1: CCTGAAGCAGACAGCTAGTGAATTCGTTTTGGTGGGTGGGTGGGTACTTGCGTATAACTGTTCCATAGT
DNA 2: ACTATGGAACAGTTATACGCAAGTATTTTTTTTTTTTTTTTTTTTTGAATTCACTAGCTGTCTGCTTCAGG
B9: Tel G4 in dsDNA (mixed)
DNA 1: CCTGAAGCAGACAGCTAGTGAATTCGGGTTAGGGTTAGGGTTAGGGTACTTGCGTATAACTGTTCCATAGT
DNA 2: ACTATGGAACAGTTATACGCAAGTATTTTTTTTTTTTTTTTTTTTTGAATTCACTAGCTGTCTGCTTCAGG
B10: BCL-2 G4 in dsDNA (mixed)
DNA 1: CCTGAAGCAGACAGCTAGTGAATTCGGGCGCGGGAGGAAGGGGGCGGGTACTTGCGTATAACTGTTCCATAGT
DNA 2: ACTATGGAACAGTTATACGCAAGTATTTTTTTTTTTTTTTTTTTTTGAATTCACTAGCTGTCTGCTTCAGG
B11: PDGFRB G4 in dsDNA (mixed)
DNA 1: CCTGAAGCAGACAGCTAGTGAATTCGGGGGGGCGGCGGGGTACTTGCGTATAACTGTTCCATAGT
DNA 2: ACTATGGAACAGTTATACGCAAGTATTTTTTTTTTTTTTTTTTTTTGAATTCACTAGCTGTCTGCTTCAGG
B12: C-Kit G4 in dsDNA (mixed)
DNA 1: CCTGAAGCAGACAGCTAGTGAATTCGGGCGGGCGCGAGGGAGGGTACTTGCGTATAACTGTTCCATAGT
DNA 2: ACTATGGAACAGTTATACGCAAGTATTTTTTTTTTTTTTTTTTTTTGAATTCACTAGCTGTCTGCTTCAGG

In the series the target is Human DNA topoisomerase 1 (Top1) (Homo sapiens, UniProt P11387 1-765). The series can be described thus: EMSA. On the technique in general: Mobility shift assays separate free from complexed probe on a gel.
Chain of Human DNA topoisomerase 1 (Top1) (P11387 whole entry): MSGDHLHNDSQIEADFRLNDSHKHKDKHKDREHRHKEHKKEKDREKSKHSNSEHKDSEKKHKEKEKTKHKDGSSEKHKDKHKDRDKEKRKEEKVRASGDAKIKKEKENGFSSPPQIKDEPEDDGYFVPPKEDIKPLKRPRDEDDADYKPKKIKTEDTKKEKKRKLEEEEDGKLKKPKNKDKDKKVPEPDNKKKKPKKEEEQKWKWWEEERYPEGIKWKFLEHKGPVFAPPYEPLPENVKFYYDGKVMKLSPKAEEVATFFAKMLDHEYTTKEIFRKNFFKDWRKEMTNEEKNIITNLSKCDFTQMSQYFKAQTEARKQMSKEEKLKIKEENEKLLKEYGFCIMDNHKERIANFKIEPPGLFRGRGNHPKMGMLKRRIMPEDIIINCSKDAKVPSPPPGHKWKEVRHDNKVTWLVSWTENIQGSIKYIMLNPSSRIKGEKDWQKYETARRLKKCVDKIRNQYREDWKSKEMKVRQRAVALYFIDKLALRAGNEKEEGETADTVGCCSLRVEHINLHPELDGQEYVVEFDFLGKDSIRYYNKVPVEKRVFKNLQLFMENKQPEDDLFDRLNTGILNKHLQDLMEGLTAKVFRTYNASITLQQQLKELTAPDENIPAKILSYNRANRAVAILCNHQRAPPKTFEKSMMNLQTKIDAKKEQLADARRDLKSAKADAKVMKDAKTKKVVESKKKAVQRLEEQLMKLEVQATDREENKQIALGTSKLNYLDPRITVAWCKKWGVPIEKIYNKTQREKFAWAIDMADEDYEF
Turning to B1, the binding result was “binds”.
For B2 the value was “no binding”; for B3, “no binding”.
On to B4, for which the binding result is recorded as “binds”.
B5: the binding result is reported as “binds”.
For B6 the value was “binds”.
For B7 the value was “binds”; for B8, “binds”; for B9, “binds”.
For B10 the value was “binds”; for B11, “binds”; for B12, “binds”.
